# Measured values: article PMC6546359
# T1: CsrA-Strep (Bacillus subtilis, UniProt P33911 1-74)
# T1 sequence: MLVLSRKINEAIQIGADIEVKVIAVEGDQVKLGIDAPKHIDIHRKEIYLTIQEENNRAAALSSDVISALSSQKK
# Target: T1, CsrA-Strep
# Experiment: EMSA
row,Binder,binding result
1,FsrA (structured_RNA) RNA: AUAGAGAGAAGCUACUCUCUGUUCCCCAACCCCUCUAUCAGAUCAAGAUCCGGAAAAAACUUGGCGCUACCCCCGCCAAGUUUUU,no binding
2,RnaC (structured_RNA) RNA: UAAGGCCGGCGCGAUACUCCCUAUAACAUCCUUUUCAGUAGAUUUCAUUAUCGUGCCGGUUUUCUCAUAUGCAAAGCAAUCCCGCCAAUCAGAUUGGCGGGGAUUUUAUAUUU,no binding
3,RoxS (structured_RNA) RNA: GUGAAAUUGAUCACAAACAAACAUUACCCCUUUGUUUGACCGUGAAAAUUUCUCCCAUCCCCUUUGUUGUCGUUAAGACAUAUGAAACCGCGCUUAUCCCGGCGCGGUUUCUUU,no binding
